{"source": "patent US20010034019A1", "about": "“Chimeric HCV/GBV-B viruses” (priority 1999, published 2001)", "key": {"GBV-B NS5B ΔCT19 [1]": {"biological_target": "T1, GBV-B NS5B ΔCT19 (Hepatitis GB virus B, UniProt Q69422)", "T1 construct": "initiator methionine (N); made in house; host or cells: E. coli JM109 (DE3)", "T1 sequence (Q69422 2275-2845 limits assumed)": "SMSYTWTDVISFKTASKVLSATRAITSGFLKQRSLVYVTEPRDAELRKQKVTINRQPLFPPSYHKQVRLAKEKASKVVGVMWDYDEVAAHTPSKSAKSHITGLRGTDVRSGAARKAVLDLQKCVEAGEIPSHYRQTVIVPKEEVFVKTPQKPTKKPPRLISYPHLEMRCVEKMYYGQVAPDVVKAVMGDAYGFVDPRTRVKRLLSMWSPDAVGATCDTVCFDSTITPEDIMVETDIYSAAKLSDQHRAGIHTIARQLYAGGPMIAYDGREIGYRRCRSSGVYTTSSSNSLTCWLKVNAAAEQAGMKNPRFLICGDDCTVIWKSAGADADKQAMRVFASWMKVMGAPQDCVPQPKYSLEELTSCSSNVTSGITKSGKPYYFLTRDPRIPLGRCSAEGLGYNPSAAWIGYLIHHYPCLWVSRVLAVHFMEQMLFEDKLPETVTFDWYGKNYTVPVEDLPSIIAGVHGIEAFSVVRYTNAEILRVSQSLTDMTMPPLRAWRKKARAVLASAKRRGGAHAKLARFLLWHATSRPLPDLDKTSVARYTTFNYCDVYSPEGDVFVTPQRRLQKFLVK", "assay": "RNA-binding (gel-shift) competition assay", "conditions": "for affinity order of binding to NS5B ΔCT19: competition with nonradiolabeled RNA homopolymers", "experimental": "RNA-binding assay. The RNA binding assay was performed in a 10 μl reaction mixture containing 20 mM HEPES, pH 7.3, 7.5 mM MnCl2, 7.5 mM DTT, 5% glycerol, 125 mM NaCl, 100 μg per ml of BSA, 1 unit of RNase inhibitor, 100 ng of GBV-B NS5B protein, 1 pmol of an end-labeled RNA probe with the sequence of 5′-U28GGACUU CGGUCC-3′, and increasing amounts of homopolymeric RNA as depicted indicated in FIG. 12. The probe bound most tightly to the GBV-B NS5B among all the RNA probes of similar length tested (data not shown). Following incubation at room temperature for 30 min, the reaction mixture was separated on a nondenaturing 6% polyacrylamide gel at 180 volts for 1.25 hrs in 0.5×TBE buffer. The gel was dried and subjected to autoradiography."}, "GBV-B NS5B ΔCT19 [2]": {"biological_target": "T1, GBV-B NS5B ΔCT19", "assay": "Scintillation proximity assay (SPA) of RdRp activity", "type": "biochemical", "experimental": "Scintillation proximity assay (SPA). SPA was used to determine the standard activity of RdRp, and performed under standard conditions as described previously by Ferrari et al., supra. Briefly, reaction mixtures (50 μl in total volume) containing, in addition to other buffer components (20 mM HEPES, pH7.3, 7.5 mM DTT, 10 mM MnCl2, 100 mM NaCl, 50 μg/ml BSA and 2 units of RNasin), 250 ng of poly(C), 25 ng of biotinylated oligo(G)12, 5 μM GTP/ 0.1 μCi of ^3H-GTP and 175 ng of GBV-B NS5B protein were incubated in a 96-well plate at room temperature for 3 hours. The reactions were terminated by addition of 50 μl of 100 mM EDTA in phosphate-buffered saline (PBS), the products were captured by SPA beads coated with streptavidin and ^3H-GMP incorporation was determined with a scintillation counter."}, "[3]": {"tested_on": "HCV NS4A cofactor peptide (4A13; aa 22-34 of HCV NS4A)"}, "[4]": {"tested_on": "GBV-B NS4A cofactor peptide (4A17; amino acids 20-36 of GBV-B NS4A)"}, "[5]": {"tested_on": "GBV-B NS4A 18-mer peptide (amino acids 29-46)"}, "[6]": {"tested_on": "GBV-B NS4A peptide (4A31; aa 16-46 of GBV-B NS4A)"}, "[7]": {"tested_on": "GBV-B NS4A 15-mer peptide (amino acids 22-36)"}, "GBV-B NS5B ΔCT19 [8]": {"biological_target": "T1, GBV-B NS5B ΔCT19", "assay": "Gel-based RdRp assay", "type": "biochemical", "conditions": "ZnCl2 0, 1, 2.5, 5, 7.5, 10 μM", "experimental": "Gel-based RdRp assay. Standard activity assays were performed in a reaction mixture (40 μl) containing 20 mM HEPES, pH 7.3, 15 mM MnCl2, 100 μM of ATP, UTP, GTP and 10 μCi of α-^33P-CTP, 300 ng of purified protein and 0.2 μg of a 36-base synthetic RNA (5′-GGA25UAUAUAUAU-3′). The sequence of the RNA was designed to form a stem-loop at the 3′-end to support the “copy-back” priming of RNA synthesis. The polymerization reaction was performed at 30° C. for 1 hr and terminated by phenol and chloroform extraction. RNA was ethanol precipitated and separated on a 15% TBE/6 M urea polyacrylamide gel (Novex). The gel was fixed, vacuum dried and subjected to autoradiography."}}}
{"compound": "poly (U)", "values": [{"measurement": "competition for binding of NS5B ΔCT19 to labeled RNA probe", "setting": "GBV-B NS5B ΔCT19 [1]; 0.1, 1, 10, 100 x probe", "value": "competes most efficiently for binding"}, {"measurement": "affinity order of binding to NS5B ΔCT19", "setting": "GBV-B NS5B ΔCT19 [1]", "value": "poly (U)>poly (G)>poly (A)>poly (C)"}]}
{"compound": "[Cl-].[Cl-].[Mg+2]", "note": "[Mg^2+, MgCl2]", "values": [{"measurement": "ability of divalent cation to support RdRp activity", "setting": "GBV-B NS5B ΔCT19 [2]; concentrations as high as 20 mM", "value": "could not replace Mn^2+ to support the activity"}]}
{"compound": "full-length HCV NS3 protease (HCV His-NS3)", "values": [{"measurement": "trans-cleavage of GBV-B NS4A/4B substrate by HCV NS3 with or without 100 uM peptide (SDS-PAGE)", "setting": "[3]", "value": "dose-dependent and NS4A cofactor-enhanced cleavage activity at the NS4A/4B junction site"}, {"measurement": "trans-cleavage of GBV-B NS4A/4B substrate by full-length HCV NS3 with HCV NS4A peptide (SDS-PAGE)", "setting": "[3]", "value": "also generated the cleavage products in an HCV NS4A cofactor-dependent manner"}, {"measurement": "trans-cleavage of GBV-B NS5A/5B substrate by HCV NS3 with or without 100 uM peptide (SDS-PAGE)", "setting": "[3]", "value": "Cleavage of the GBV-B NS5A/5B site was inefficient and required 10 µM of HCV NS3 protease and was cofactor dependent"}, {"measurement": "trans-cleavage of HCV and GBV-B NS4A/4B substrates by 50 nM HCV NS3 with 100 uM peptide (SDS-PAGE)", "setting": "[3]", "value": "protease activation is dependent upon an NS4A cofactor from the same virus (HCV NS3 activated by the HCV NS4A peptide)"}, {"measurement": "trans-cleavage of HCV and GBV-B NS4A/4B substrates by 50 nM HCV NS3 with 100 uM peptide (SDS-PAGE)", "setting": "[4]", "value": "protease activation is dependent upon an NS4A cofactor from the same virus (HCV NS3 not activated by the GBV-B NS4A peptide)"}]}
{"compound": "poly (C)", "values": [{"measurement": "affinity order of binding to NS5B ΔCT19", "setting": "GBV-B NS5B ΔCT19 [1]", "value": "poly (U)>poly (G)>poly (A)>poly (C)"}]}
{"compound": "[Cl][Mn][Cl]", "note": "[Mn^2+, MnCl2]", "values": [{"measurement": "optimal concentration of divalent cation for polymerase activity", "setting": "GBV-B NS5B ΔCT19 [2]; titration 0-20 mM", "value": 15, "unit": "mM"}]}
{"compound": "poly (A)", "values": [{"measurement": "affinity order of binding to NS5B ΔCT19", "setting": "GBV-B NS5B ΔCT19 [1]", "value": "poly (U)>poly (G)>poly (A)>poly (C)"}]}
{"compound": "full-length GBV-B NS3 protease (GBV-B NS3-His)", "values": [{"measurement": "cofactor activity: enhancement of cleavage of GBV-B NS4A/4B substrate by 1.5 uM GBV-B NS3 (phosphorimaging)", "setting": "[5]", "value": "did not possess the cofactor activity as it failed to enhance the protease activity"}, {"measurement": "trans-cleavage of GBV-B NS4A/4B substrate by 2 uM GBV-B NS3 with or without 20 uM peptide (SDS-PAGE)", "setting": "[6]", "value": "cleavage at the NS4A/NS4B junction by wild type GBV-B NS3 occurs only in the presence of the GBV-B NS4A cofactor"}, {"measurement": "trans-cleavage of GBV-B NS5A/5B substrate by 2 uM GBV-B NS3 with or without 20 uM peptide (SDS-PAGE)", "setting": "[6]", "value": "processing at the NS5A/NS5B junction is also NS4A cofactor-dependent"}, {"measurement": "trans-cleavage of in vitro translated HCV NS4A/4B, NS4B/5A and NS5A/5B substrates by GBV-B NS3 with or without 20 uM peptide (SDS-PAGE)", "setting": "[6]", "value": "substrate processing was greatly improved by the NS4A peptide"}, {"measurement": "trans-cleavage of HCV (250 nM protease) and GBV-B (2 uM protease) NS4A/4B substrates by GBV-B NS3 with 100 uM peptide (SDS-PAGE)", "setting": "[3]", "value": "protease activation is dependent upon an NS4A cofactor from the same virus (GBV-B NS3 not activated by the HCV NS4A peptide)"}, {"measurement": "cofactor activity: enhancement of cleavage of GBV-B NS4A/4B substrate by 1.5 uM GBV-B NS3 (phosphorimaging)", "setting": "[4]", "value": "a 17-mer peptide derived from amino acid 20 to 36 of NS4A retained the cofactor activity"}, {"measurement": "trans-cleavage of HCV (250 nM protease) and GBV-B (2 uM protease) NS4A/4B substrates by GBV-B NS3 with 100 uM peptide (SDS-PAGE)", "setting": "[4]", "value": "protease activation is dependent upon an NS4A cofactor from the same virus (GBV-B NS3 activated by the GBV-B NS4A peptide)"}, {"measurement": "cofactor activity: enhancement of cleavage of GBV-B NS4A/4B substrate by 1.5 uM GBV-B NS3 (phosphorimaging)", "setting": "[7]", "value": "a 15-mer peptide (amino acids 22-36), which is the minimum region that efficiently activates protease activity for trans-cleavage"}]}
{"compound": "[Cl-].[Cl-].[Zn+2]", "note": "[Zn^2+, ZnCl2]", "values": [{"measurement": "inhibition of GBV-B RdRp activity", "setting": "GBV-B NS5B ΔCT19 [8]", "value": "inhibits GBV-B RdRp activity at low-micromolar (μM) concentrations"}]}
{"compound": "OCC(O)CO", "note": "[Glycerol]", "values": [{"measurement": "concentration at which RdRp activity is inhibited", "setting": "GBV-B NS5B ΔCT19 [2]; poly C template, oligoG12 primer", "value": "higher than 3%"}]}
